B1: TRL848 (antibody, V domains shown)
VH: QVQLLESGGDVVQPGTSLRLSCAASGFSLWTSGMHWVRQAPGKGLEWVAVMSYDETKKYYADSVRGRFSISRDNSRNTLYLQMNSLRVEDTAVYFCAKPRLDYLDYFHAADSWGQGTLVSVSS
VL: DIVLTQPPSVSVAPGQTATITCGGNYIGSKSVNWYQQRPGHAPVLVVYDDSDRPSGIPDRFSGSNSRSTATTATLTISRVEAGDEADYYCQVWETSEDLWVFGGGTKLTVL
B2: TRL854 (antibody, V domains shown)
VH: QVQLVESGAEVKKPGASVRVSCKGSGYTFTAYHMHWVRQAPGQGFEWVGWINPNSGATYYTSTFEGRVTMTRDTSITTAYMELSSLRSDDTAVYYCATDIVVERDASLGGFNSYGMDVWGQGTTVTVSS
VL: DIEMTQSPLSLPVTPGEPASISCRSSQSLLHSNGYNHLAWYLQKPGRSPHLLIYLASTRASGVPDRFSGSGSGTDFTLKISRVEAEDVGIYYCMQSLQTSITFGQGTRLEIK
B3: TRL847 (antibody, V domains shown)
VH: QVQLVESGGGLVQPGGSLRLSCVASGFTFSRFSMNWVRQAPGMGLEWVSYISDTGRTIYYADSVKGRFTISRDNDKNTLYLQMKSLRDEDSAFYYCARDPDTPFVRAFDSWGQGVLVTVSS
VL: DIVMTQSPSFLSASVGDRVTITCRTSQVISSYLAWYQQRPGKAPKLLIYAASTLQSGVPSRFSGSGSGTRFSLTISNLQPEDFATYFCQQLTTYPPITFGQGTRLEIK

Target: biotinylated HA antigen of B/Florida/04/2006 (influenza B virus B/Florida/04/2006, biotin (site not stated))
Experiment: BLI

Row | Binder | Kd
1 | B1 | 1.7 nM
2 | B2 | 8.8 nM
3 | B3 | 0.7 nM

Source: paper PMC5923107 (2018)
